In the Human Domainome abundance scans (Beltran et al. 2025):
± gives the uncertainty stated by the source.

B1: Tripartite motif-containing protein 44, residues 174 to 218; numbered along this chain, Q96DX7 (parent)
chain: VAKRKCPDHGLDLSTYCQEDRQLICVLCPVIGAHQGHQLSTLDEA

Variants of: B1
Experiment: abundance fitness (aPCA) (normalised: wild type 0, dead -1); higher = more abundant; growth selection in yeast, the domain comes from the species named
Settings: Homo sapiens

Question: With VAKRKCPDHGLDLSTYCQEDRQLICVLCPVIGAHQAHQLSTLDEA as the variant, how does the abundance fitness read?
Answer: Its abundance fitness is -0.131 ± 0.028.

Question: For VAKRKCPDHGLDLSTYCQEDRQLICVLCPVIGAHQCHQLSTLDEA, which abundance fitness is on record?
Answer: Its abundance fitness is -0.172 ± 0.035.

Question: For VAKRKCPDHGLDLSTYCQEDRQLICVLCPVIGAHQDHQLSTLDEA, which abundance fitness is on record?
Answer: The abundance fitness was -0.071 ± 0.047.

Question: With VAKRKCPDHGLDLSTYCQEDRQLICVLCPVIGAHQEHQLSTLDEA as the variant, how does the abundance fitness read?
Answer: Its abundance fitness is -0.048 ± 0.029.

Question: Which abundance fitness does the source give for VAKRKCPDHGLDLSTYCQEDRQLICVLCPVIGAHQFHQLSTLDEA here?
Answer: The abundance fitness was -0.193 ± 0.059.

Question: Which abundance fitness does the source give for VAKRKCPDHGLDLSTYCQEDRQLICVLCPVIGAHQHHQLSTLDEA here?
Answer: Its abundance fitness is -0.033 ± 0.046.

Question: With VAKRKCPDHGLDLSTYCQEDRQLICVLCPVIGAHQIHQLSTLDEA as the variant, how does the abundance fitness read?
Answer: The abundance fitness was -0.623 ± 0.13.

Question: Which abundance fitness does the source give for VAKRKCPDHGLDLSTYCQEDRQLICVLCPVIGAHQKHQLSTLDEA here?
Answer: The abundance fitness was -0.128 ± 0.033.

Question: Which abundance fitness does the source give for VAKRKCPDHGLDLSTYCQEDRQLICVLCPVIGAHQLHQLSTLDEA here?
Answer: Its abundance fitness is -0.266 ± 0.028.

Question: Which abundance fitness does the source give for VAKRKCPDHGLDLSTYCQEDRQLICVLCPVIGAHQMHQLSTLDEA here?
Answer: Its abundance fitness is -0.245 ± 0.031.

Question: Which abundance fitness does the source give for VAKRKCPDHGLDLSTYCQEDRQLICVLCPVIGAHQNHQLSTLDEA here?
Answer: Its abundance fitness is -0.007 ± 0.052.

Question: For VAKRKCPDHGLDLSTYCQEDRQLICVLCPVIGAHQPHQLSTLDEA, which abundance fitness is on record?
Answer: The abundance fitness was -0.561 ± 0.044.

Question: With VAKRKCPDHGLDLSTYCQEDRQLICVLCPVIGAHQQHQLSTLDEA as the variant, how does the abundance fitness read?
Answer: The abundance fitness was -0.088 ± 0.032.

Question: For VAKRKCPDHGLDLSTYCQEDRQLICVLCPVIGAHQRHQLSTLDEA, which abundance fitness is on record?
Answer: The abundance fitness was -0.158 ± 0.026.

Question: With VAKRKCPDHGLDLSTYCQEDRQLICVLCPVIGAHQSHQLSTLDEA as the variant, how does the abundance fitness read?
Answer: The abundance fitness was -0.117 ± 0.03.

Question: With VAKRKCPDHGLDLSTYCQEDRQLICVLCPVIGAHQVHQLSTLDEA as the variant, how does the abundance fitness read?
Answer: The abundance fitness was -0.519 ± 0.03.

Question: For VAKRKCPDHGLDLSTYCQEDRQLICVLCPVIGAHQWHQLSTLDEA, which abundance fitness is on record?
Answer: Its abundance fitness is -0.409 ± 0.03.

Question: Which abundance fitness does the source give for VAKRKCPDHGLDLSTYCQEDRQLICVLCPVIGAHQYHQLSTLDEA here?
Answer: The abundance fitness was -0.363 ± 0.067.

Question: With VAKRKCPDHGLDLSTYCQEDRQLICVLCPVIGAHQGAQLSTLDEA as the variant, how does the abundance fitness read?
Answer: Its abundance fitness is -0.679 ± 0.032.

Question: With VAKRKCPDHGLDLSTYCQEDRQLICVLCPVIGAHQGCQLSTLDEA as the variant, how does the abundance fitness read?
Answer: The abundance fitness was -0.055 ± 0.033.

Question: Which abundance fitness does the source give for VAKRKCPDHGLDLSTYCQEDRQLICVLCPVIGAHQGDQLSTLDEA here?
Answer: Its abundance fitness is -0.589 ± 0.042.

Question: For VAKRKCPDHGLDLSTYCQEDRQLICVLCPVIGAHQGEQLSTLDEA, which abundance fitness is on record?
Answer: Its abundance fitness is -0.565 ± 0.033.

Question: Which abundance fitness does the source give for VAKRKCPDHGLDLSTYCQEDRQLICVLCPVIGAHQGFQLSTLDEA here?
Answer: The abundance fitness was -0.931 ± 0.085.

Question: With VAKRKCPDHGLDLSTYCQEDRQLICVLCPVIGAHQGIQLSTLDEA as the variant, how does the abundance fitness read?
Answer: The abundance fitness was -1.01 ± 0.12.

Question: With VAKRKCPDHGLDLSTYCQEDRQLICVLCPVIGAHQGKQLSTLDEA as the variant, how does the abundance fitness read?
Answer: The abundance fitness was -0.606 ± 0.042.

Question: With VAKRKCPDHGLDLSTYCQEDRQLICVLCPVIGAHQGLQLSTLDEA as the variant, how does the abundance fitness read?
Answer: Its abundance fitness is -0.839 ± 0.039.

Question: Which abundance fitness does the source give for VAKRKCPDHGLDLSTYCQEDRQLICVLCPVIGAHQGMQLSTLDEA here?
Answer: The abundance fitness was -0.676 ± 0.038.

Question: With VAKRKCPDHGLDLSTYCQEDRQLICVLCPVIGAHQGNQLSTLDEA as the variant, how does the abundance fitness read?
Answer: Its abundance fitness is -0.584 ± 0.063.

Question: Which abundance fitness does the source give for VAKRKCPDHGLDLSTYCQEDRQLICVLCPVIGAHQGPQLSTLDEA here?
Answer: Its abundance fitness is -0.588 ± 0.04.

Question: Which abundance fitness does the source give for VAKRKCPDHGLDLSTYCQEDRQLICVLCPVIGAHQGQQLSTLDEA here?
Answer: Its abundance fitness is -0.599 ± 0.043.

Question: With VAKRKCPDHGLDLSTYCQEDRQLICVLCPVIGAHQGRQLSTLDEA as the variant, how does the abundance fitness read?
Answer: Its abundance fitness is -0.677 ± 0.03.

Question: For VAKRKCPDHGLDLSTYCQEDRQLICVLCPVIGAHQGSQLSTLDEA, which abundance fitness is on record?
Answer: Its abundance fitness is -0.678 ± 0.038.

Question: Which abundance fitness does the source give for VAKRKCPDHGLDLSTYCQEDRQLICVLCPVIGAHQGWQLSTLDEA here?
Answer: The abundance fitness was -0.95 ± 0.055.

Question: With VAKRKCPDHGLDLSTYCQEDRQLICVLCPVIGAHQGYQLSTLDEA as the variant, how does the abundance fitness read?
Answer: Its abundance fitness is -0.849 ± 0.071.

Question: For VAKRKCPDHGLDLSTYCQEDRQLICVLCPVIGAHQGHALSTLDEA, which abundance fitness is on record?
Answer: Its abundance fitness is -0.032 ± 0.028.

Question: With VAKRKCPDHGLDLSTYCQEDRQLICVLCPVIGAHQGHCLSTLDEA as the variant, how does the abundance fitness read?
Answer: Its abundance fitness is -0.051 ± 0.037.

Question: For VAKRKCPDHGLDLSTYCQEDRQLICVLCPVIGAHQGHDLSTLDEA, which abundance fitness is on record?
Answer: The abundance fitness was 0.036 ± 0.04.

Question: Which abundance fitness does the source give for VAKRKCPDHGLDLSTYCQEDRQLICVLCPVIGAHQGHELSTLDEA here?
Answer: The abundance fitness was 0.007 ± 0.028.

Question: With VAKRKCPDHGLDLSTYCQEDRQLICVLCPVIGAHQGHFLSTLDEA as the variant, how does the abundance fitness read?
Answer: Its abundance fitness is -0.079 ± 0.047.

Question: For VAKRKCPDHGLDLSTYCQEDRQLICVLCPVIGAHQGHGLSTLDEA, which abundance fitness is on record?
Answer: Its abundance fitness is -0.009 ± 0.026.

Question: For VAKRKCPDHGLDLSTYCQEDRQLICVLCPVIGAHQGHHLSTLDEA, which abundance fitness is on record?
Answer: Its abundance fitness is 0.024 ± 0.045.

Question: With VAKRKCPDHGLDLSTYCQEDRQLICVLCPVIGAHQGHILSTLDEA as the variant, how does the abundance fitness read?
Answer: Its abundance fitness is -0.045 ± 0.047.

Question: With VAKRKCPDHGLDLSTYCQEDRQLICVLCPVIGAHQGHKLSTLDEA as the variant, how does the abundance fitness read?
Answer: The abundance fitness was 0.03 ± 0.031.

Question: With VAKRKCPDHGLDLSTYCQEDRQLICVLCPVIGAHQGHLLSTLDEA as the variant, how does the abundance fitness read?
Answer: The abundance fitness was -0.061 ± 0.03.

Question: Which abundance fitness does the source give for VAKRKCPDHGLDLSTYCQEDRQLICVLCPVIGAHQGHMLSTLDEA here?
Answer: Its abundance fitness is 0 ± 0.032.

Question: With VAKRKCPDHGLDLSTYCQEDRQLICVLCPVIGAHQGHNLSTLDEA as the variant, how does the abundance fitness read?
Answer: The abundance fitness was 0.029 ± 0.035.

Question: Which abundance fitness does the source give for VAKRKCPDHGLDLSTYCQEDRQLICVLCPVIGAHQGHPLSTLDEA here?
Answer: Its abundance fitness is -0.03 ± 0.032.

Question: With VAKRKCPDHGLDLSTYCQEDRQLICVLCPVIGAHQGHRLSTLDEA as the variant, how does the abundance fitness read?
Answer: Its abundance fitness is -0.006 ± 0.026.

Question: For VAKRKCPDHGLDLSTYCQEDRQLICVLCPVIGAHQGHTLSTLDEA, which abundance fitness is on record?
Answer: The abundance fitness was 0.039 ± 0.033.

Question: With VAKRKCPDHGLDLSTYCQEDRQLICVLCPVIGAHQGHVLSTLDEA as the variant, how does the abundance fitness read?
Answer: Its abundance fitness is -0.071 ± 0.027.

Question: Which abundance fitness does the source give for VAKRKCPDHGLDLSTYCQEDRQLICVLCPVIGAHQGHWLSTLDEA here?
Answer: Its abundance fitness is -0.255 ± 0.031.

Question: With VAKRKCPDHGLDLSTYCQEDRQLICVLCPVIGAHQGHYLSTLDEA as the variant, how does the abundance fitness read?
Answer: Its abundance fitness is -0.145 ± 0.044.

Question: For VAKRKCPDHGLDLSTYCQEDRQLICVLCPVIGAHQGHQASTLDEA, which abundance fitness is on record?
Answer: Its abundance fitness is -0.02 ± 0.029.

Question: For VAKRKCPDHGLDLSTYCQEDRQLICVLCPVIGAHQGHQCSTLDEA, which abundance fitness is on record?
Answer: Its abundance fitness is -0.06 ± 0.034.

Question: With VAKRKCPDHGLDLSTYCQEDRQLICVLCPVIGAHQGHQDSTLDEA as the variant, how does the abundance fitness read?
Answer: Its abundance fitness is -0.025 ± 0.035.

Question: For VAKRKCPDHGLDLSTYCQEDRQLICVLCPVIGAHQGHQESTLDEA, which abundance fitness is on record?
Answer: Its abundance fitness is -0.021 ± 0.029.

Question: For VAKRKCPDHGLDLSTYCQEDRQLICVLCPVIGAHQGHQFSTLDEA, which abundance fitness is on record?
Answer: Its abundance fitness is -0.026 ± 0.05.
